In publication doi:10.1101/2020.05.27.119388 (bioRxiv, 2020):

Target: MYC-LRRK2 (leucine rich repeat kinase 2), wild type (human, UniProt Q5S007 1-2527)
Assay: co-IP

Sequence of MYC-LRRK2 (leucine rich repeat kinase 2), wild type (Q5S007 whole entry): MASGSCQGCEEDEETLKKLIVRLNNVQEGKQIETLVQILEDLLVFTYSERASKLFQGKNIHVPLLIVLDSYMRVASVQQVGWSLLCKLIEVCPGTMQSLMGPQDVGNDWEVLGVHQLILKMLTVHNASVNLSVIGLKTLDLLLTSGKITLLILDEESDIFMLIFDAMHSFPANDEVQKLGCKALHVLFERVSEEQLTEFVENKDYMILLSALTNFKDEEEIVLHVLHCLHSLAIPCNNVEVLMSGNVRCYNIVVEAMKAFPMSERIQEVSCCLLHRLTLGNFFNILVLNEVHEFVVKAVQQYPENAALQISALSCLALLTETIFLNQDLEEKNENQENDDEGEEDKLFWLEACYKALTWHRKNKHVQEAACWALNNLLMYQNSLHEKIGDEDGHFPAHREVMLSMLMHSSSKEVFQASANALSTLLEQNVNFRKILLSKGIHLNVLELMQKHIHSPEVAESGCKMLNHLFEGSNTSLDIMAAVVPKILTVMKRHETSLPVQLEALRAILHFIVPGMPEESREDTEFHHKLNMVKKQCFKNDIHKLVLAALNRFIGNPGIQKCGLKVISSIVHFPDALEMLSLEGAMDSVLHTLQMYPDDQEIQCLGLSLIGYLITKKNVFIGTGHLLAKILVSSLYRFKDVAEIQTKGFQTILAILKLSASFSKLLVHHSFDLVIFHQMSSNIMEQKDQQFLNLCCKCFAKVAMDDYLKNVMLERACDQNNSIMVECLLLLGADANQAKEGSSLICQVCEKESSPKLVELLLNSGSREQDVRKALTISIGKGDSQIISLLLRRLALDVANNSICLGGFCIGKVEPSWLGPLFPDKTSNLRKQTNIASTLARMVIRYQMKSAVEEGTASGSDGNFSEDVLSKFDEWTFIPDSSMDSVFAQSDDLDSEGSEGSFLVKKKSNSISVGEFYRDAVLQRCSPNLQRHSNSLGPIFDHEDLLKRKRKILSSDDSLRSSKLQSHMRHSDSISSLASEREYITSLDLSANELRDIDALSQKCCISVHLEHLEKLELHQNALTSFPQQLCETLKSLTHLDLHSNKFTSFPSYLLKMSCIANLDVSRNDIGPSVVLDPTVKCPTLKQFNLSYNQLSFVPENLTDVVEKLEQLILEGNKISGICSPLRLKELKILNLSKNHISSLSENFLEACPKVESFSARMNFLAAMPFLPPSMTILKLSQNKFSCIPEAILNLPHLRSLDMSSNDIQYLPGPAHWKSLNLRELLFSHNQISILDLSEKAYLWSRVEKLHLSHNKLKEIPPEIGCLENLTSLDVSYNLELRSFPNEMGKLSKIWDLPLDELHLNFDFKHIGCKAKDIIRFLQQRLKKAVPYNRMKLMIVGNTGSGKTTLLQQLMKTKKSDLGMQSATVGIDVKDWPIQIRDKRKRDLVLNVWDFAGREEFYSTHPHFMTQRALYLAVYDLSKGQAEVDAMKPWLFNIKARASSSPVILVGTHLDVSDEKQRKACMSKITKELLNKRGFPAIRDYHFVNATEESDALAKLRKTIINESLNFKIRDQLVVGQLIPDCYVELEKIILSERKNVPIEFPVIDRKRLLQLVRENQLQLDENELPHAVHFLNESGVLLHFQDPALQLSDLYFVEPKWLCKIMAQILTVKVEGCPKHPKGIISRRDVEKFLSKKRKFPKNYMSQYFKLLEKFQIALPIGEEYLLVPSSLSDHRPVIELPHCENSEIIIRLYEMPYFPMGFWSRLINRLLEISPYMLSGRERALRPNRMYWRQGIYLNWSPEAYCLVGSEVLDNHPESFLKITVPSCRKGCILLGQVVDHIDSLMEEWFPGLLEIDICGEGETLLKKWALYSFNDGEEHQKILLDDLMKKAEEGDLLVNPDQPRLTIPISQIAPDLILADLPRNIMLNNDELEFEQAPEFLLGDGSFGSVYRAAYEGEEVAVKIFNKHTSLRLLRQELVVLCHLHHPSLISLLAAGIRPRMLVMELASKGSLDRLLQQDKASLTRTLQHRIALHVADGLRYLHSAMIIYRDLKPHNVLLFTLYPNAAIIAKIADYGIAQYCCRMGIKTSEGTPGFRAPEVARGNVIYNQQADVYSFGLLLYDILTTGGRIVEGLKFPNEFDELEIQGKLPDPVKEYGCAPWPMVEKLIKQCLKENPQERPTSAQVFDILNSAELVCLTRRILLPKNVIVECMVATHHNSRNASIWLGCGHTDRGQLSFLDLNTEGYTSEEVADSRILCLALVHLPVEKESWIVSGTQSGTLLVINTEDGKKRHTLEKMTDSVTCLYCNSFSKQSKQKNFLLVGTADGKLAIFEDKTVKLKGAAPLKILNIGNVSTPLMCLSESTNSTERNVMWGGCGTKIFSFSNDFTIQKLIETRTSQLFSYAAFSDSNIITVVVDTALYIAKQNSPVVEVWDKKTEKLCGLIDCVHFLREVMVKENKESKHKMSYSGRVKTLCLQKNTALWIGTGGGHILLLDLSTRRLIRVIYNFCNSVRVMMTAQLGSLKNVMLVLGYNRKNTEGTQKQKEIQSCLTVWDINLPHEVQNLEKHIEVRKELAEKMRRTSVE

- binding result: binds
B1: GST-AP2M1, recombinant (natural protein)
chain: MIGGLFIYNHKGEVLISRVYRDDIGRNAVDAFRVNVIHARQQVRSPVTNIARTSFFHVKRSNIWLAAVTKQNVNAAMVFEFLYKMCDVMAAYFGKISEENIKNNFVLIYELLDEILDFGYPQNSETGALKTFITQQGIKSQHQTKEEQSQITSQVTGQIGWRREGIKYRRNELFLDVLESVNLLMSPQGQVLSAHVSGRVVMKSYLSGMPECKFGMNDKIVIEKQGKGTADETSKSGKQSIAIDDCTFHQCVRLSKFDSERSISFIPPDGEFELMRYRTTKDIILPFRVIPLVREVGRTKLEVKVVIKSNFKPSLLAQKIEVRIPTPLNTSGVQVICMKGKAKYKASENAIVWKIKRMAGMKESQISAEIELLPTNDKKKWARPPISMNFEVPFAPSGLKVRYLKVFEPKLNYSDHDVIKWVRYIGRSGIYETRC
